# Measured values reported in article PMC12808100, “The non-catalytic DNA polymerase ε subunit is an NPF motif recognition protein” (Nature Communications, 2025).
# B1: endogenous DONSON: endogenous DONSON protein in Jurkat extract (protein)
# chain: MALSVPGYSPGFRKPPEVVRLRRKRARSRGAAASPPRELTEPAARRAALVAGLPLRPFPAAGGRGGGSGGGPAAARRNPFARLDNRPRVAAEPPDGPAREQPEAPVPFLDSNQENDLLWEEKFPERTTVTELPQTSHVSFSEPDIPSSKSTELPVDWSIKTRLLFTSSQPFTWADHLKAQEEAQGLVQHCRATEVTLPKSIQDPKLSSELRCTFQQSLIYWLHPALSWLPLFPRIGADRKMAGKTSPWSNDATLQHVLMSDWSVSFTSLYNLLKTKLCPYFYVCTYQFTVLFRAAGLAGSDLITALISPTTRGLREAMRNEGIEFSLPLIKESGHKKETASGTSLGYGEEQAISDEDEEESFSWLEEMGVQDKIKKPDILSIKLRKEKHEVQMDHRPESVVLVKGINTFTLLNFLINSKSLVATSGPQAGLPPTLLSPVAFRGATMQMLKARSVNVKTQALSGYRDQFSLEITGPIMPHSLHSLTMLLKSSQSGSFSAVLYPHEPTAVFNICLQMDKVLDMEVVHKELTNCGLHPNTLEQLSQIPLLGKSSLRNVVLRDYIYNWRS
# B2: LDB1 (protein, UniProt Q86U70 2-411, looked up)
# LIM domain-binding protein 1: SVGCACPGCSSKSFKLYSPKEPPNGNAFPPFHPGTMLDRDVGPTPMYPPTYLEPGIGRHTPYGNQTDYRIFELNKRLQNWTEECDNLWWDAFTTEFFEDDAMLTITFCLEDGPKRYTIGRTLIPRYFRSIFEGGATELYYVLKHPKEAFHSNFVSLDCDQGSMVTQHGKPMFTQVCVEGRLYLEFMFDDMMRIKTWHFSIRQHRELIPRSILAMHAQDPQMLDQLSKNITRCGLSNSTLNYLRLCVILEPMQELMSRHKTYSLSPRDCLKTCLFQKWQRMVAPPAEPTRQQPSKRRKRKMSGGSTMSSGGGNTNNSNSKKKSPASTFALSSQVPDVMVVGEPTLMGGEFGDEDERLITRLENTQFDAANGIDDEDSFNNSPALGANSPWNSKPPSSQESKSENPTSQASQ
# B3: PITPNA (protein, UniProt Q00169 2-270, looked up)
# Phosphatidylinositol transfer …: VLLKEYRVILPVSVDEYQVGQLYSVAEASKNETGGGEGVEVLVNEPYEKDGEKGQYTHKIYHLQSKVPTFVRMLAPEGALNIHEKAWNAYPYCRTVITNEYMKEDFLIKIETWHKPDLGTQENVHKLEPEAWKHVEAVYIDIADRSQVLSKDYKAEEDPAKFKSIKTGRGPLGPNWKQELVNQKDCPYMCAYKLVTVKFKWWGLQNKVENFIHKQERRLFTNFHRQLFCWLDKWVDLTMDDIRRMEEETKRQLDEMRQKDPVKGMTADD
# B4: GLB1 (protein, UniProt P16278 29-677, looked up)
# Beta-galactosidase: QRMFEIDYSRDSFLKDGQPFRYISGSIHYSRVPRFYWKDRLLKMKMAGLNAIQTYVPWNFHEPWPGQYQFSEDHDVEYFLRLAHELGLLVILRPGPYICAEWEMGGLPAWLLEKESILLRSSDPDYLAAVDKWLGVLLPKMKPLLYQNGGPVITVQVENEYGSYFACDFDYLRFLQKRFRHHLGDDVVLFTTDGAHKTFLKCGALQGLYTTVDFGTGSNITDAFLSQRKCEPKGPLINSEFYTGWLDHWGQPHSTIKTEAVASSLYDILARGASVNLYMFIGGTNFAYWNGANSPYAAQPTSYDYDAPLSEAGDLTEKYFALRNIIQKFEKVPEGPIPPSTPKFAYGKVTLEKLKTVGAALDILCPSGPIKSLYPLTFIQVKQHYGFVLYRTTLPQDCSNPAPLSSPLNGVHDRAYVAVDGIPQGVLERNNVITLNITGKAGATLDLLVENMGRVNYGAYINDFKGLVSNLTLSSNILTDWTIFPLDTEDAVRSHLGGWGHRDSGHHDEAWAHNSSNYTLPAFYMGNFSIPSGIPDLPQDTFIQFPGWTKGQVWINGFNLGRYWPARGPQLTLFVPQHILMTSAPNTITVLELEWAPCSSDDPELCAVTFVDRPVIGSSVTYDHPSKPVEKRLMPPPPQKNKDSWLDHV
# B5: FBXO3 (protein, UniProt Q9UK99 1-471, looked up)
# F-box only protein 3: MAAMETETAPLTLESLPTDPLLLILSFLDYRDLINCCYVSRRLSQLSSHDPLWRRHCKKYWLISEEEKTQKNQCWKSLFIDTYSDVGRYIDHYAAIKKAWDDLKKYLEPRCPRMVLSLKEGAREEDLDAVEAQIGCKLPDDYRCSYRIHNGQKLVVPGLLGSMALSNHYRSEDLLDVDTAAGGFQQRQGLKYCLPLTFCIHTGLSQYIAVEAAEGRNKNEVFYQCPDQMARNPAAIDMFIIGATFTDWFTSYVKNVVSGGFPIIRDQIFRYVHDPECVATTGDITVSVSTSFLPELSSVHPPHYFFTYRIRIEMSKDALPEKACQLDSRYWRITNAKGDVEEVQGPGVVGEFPIISPGRVYEYTSCTTFSTTSGYMEGYYTFHFLYFKDKIFNVAIPRFHMACPTFRVSIARLEMGPDEYEEMEEEEEEEEEEDEDDDSADMDESDEDDEEERRRRVFDVPIRRRRCSRLF
# B6: FBXO45 (protein, UniProt P0C2W1 2-286, looked up)
# F-box/SPRY domain-containing …: AAPAPGAGAASGGAGCSGGGAGAGAGSGSGAAGAGGRLPSRVLELVFSYLELSELRSCALVCKHWYRCLHGDENSEVWRSLCARSLAEEALRTDILCNLPSYKAKIRAFQHAFSTNDCSRNVYIKKNGFTLHRNPIAQSTDGARTKIGFSEGRHAWEVWWEGPLGTVAVIGIATKRAPMQCQGYVALLGSDDQSWGWNLVDNNLLHNGEVNGSFPQCNNAPKYQIGERIRVILDMEDKTLAFERGYEFLGVAFRGLPKVCLYPAVSAVYGNTEVTLVYLGKPLDG
# B7: CAPN6 (protein, UniProt Q9Y6Q1 1-641, looked up)
# Calpain-6: MGPPLKLFKNQKYQELKQECIKDSRLFCDPTFLPENDSLFYNRLLPGKVVWKRPQDICDDPHLIVGNISNHQLTQGRLGHKPMVSAFSCLAVQESHWTKTIPNHKEQEWDPQKTEKYAGIFHFRFWHFGEWTEVVIDDLLPTINGDLVFSFSTSMNEFWNALLEKAYAKLLGCYEALDGLTITDIIVDFTGTLAETVDMQKGRYTELVEEKYKLFGELYKTFTKGGLICCSIESPNQEEQEVETDWGLLKGHTYTMTDIRKIRLGERLVEVFSAEKVYMVRLRNPLGRQEWSGPWSEISEEWQQLTASDRKNLGLVMSDDGEFWMSLEDFCRNFHKLNVCRNVNNPIFGRKELESVLGCWTVDDDPLMNRSGGCYNNRDTFLQNPQYIFTVPEDGHKVIMSLQQKDLRTYRRMGRPDNYIIGFELFKVEMNRKFRLHHLYIQERAGTSTYIDTRTVFLSKYLKKGNYVLVPTMFQHGRTSEFLLRIFSEVPVQLRELTLDMPKMSCWNLARGYPKVVTQITVHSAEDLEKKYANETVNPYLVIKCGKEEVRSPVQKNTVHAIFDTQAIFYRRTTDIPIIVQVWNSRKFCDQFLGQVTLDADPSDCRDLKSLYLRKKGGPTAKVKQGHISFKVISSDDLTEL
# B8: PNMA2 (protein, UniProt Q9UL42 2-364, looked up)
# Paraneoplastic antigen Ma2: ALALLEDWCRIMSVDEQKSLMVTGIPADFEEAEIQEVLQETLKSLGRYRLLGKIFRKQENANAVLLELLEDTDVSAIPSEVQGKGGVWKVIFKTPNQDTEFLERLNLFLEKEGQTVSGMFRALGQEGVSPATVPCISPELLAHLLGQAMAHAPQPLLPMRYRKLRVFSGSAVPAPEEESFEVWLEQATEIVKEWPVTEAEKKRWLAESLRGPALDLMHIVQADNPSISVEECLEAFKQVFGSLESRRTAQVRYLKTYQEEGEKVSAYVLRLETLLRRAVEKRAIPRRIADQVRLEQVMAGATLNQMLWCRLRELKDQGPPPSFLELMKVIREEEEEEASFENESIEEPEERDGYGRWNHEGDD
# B9: LMO4 (protein, UniProt P61968 1-165, looked up)
# LIM domain transcription …: MVNPGSSSQPPPVTAGSLSWKRCAGCGGKIADRFLLYAMDSYWHSRCLKCSCCQAQLGDIGTSCYTKSGMILCRNDYIRLFGNSGACSACGQSIPASELVMRAQGNVYHLKCFTCSTCRNRLVPGDRFHYINGSLFCEHDRPTALINGHLNSLQSNPLLPDQKVC
# B10: DOK1 (protein, UniProt Q99704 1-481, looked up)
# Docking protein 1: MDGAVMEGPLFLQSQRFGTKRWRKTWAVLYPASPHGVARLEFFDHKGSSSGGGRGSSRRLDCKVIRLAECVSVAPVTVETPPEPGATAFRLDTAQRSHLLAADAPSSAAWVQTLCRNAFPKGSWTLAPTDNPPKLSALEMLENSLYSPTWEGSQFWVTVQRTEAAERCGLHGSYVLRVEAERLTLLTVGAQSQILEPLLSWPYTLLRRYGRDKVMFSFEAGRRCPSGPGTFTFQTAQGNDIFQAVETAIHRQKAQGKAGQGHDVLRADSHEGEVAEGKLPSPPGPQELLDSPPALYAEPLDSLRIAPCPSQDSLYSDPLDSTSAQAGEGVQRKKPLYWDLYEHAQQQLLKAKLTDPKEDPIYDEPEGLAPVPPQGLYDLPREPKDAWWCQARVKEEGYELPYNPATDDYAVPPPRSTKPLLAPKPQGPAFPEPGTATGSGIKSHNSALYSQVQKSGASGSWDCGLSRVGTDKTGVKSEGST
# Biological target: His6-avi-MBP-tagged POLE2
# Test: Single-point nHU-MS with recombinant His6-avi-MBP-POLE2 bait, Jurkat extract
# Assay type: binding, human
# Details: for pKapp_sign: significant apparent affinity of endogenous prey protein for POLE2 bait, single-point nHU-MS, Figure S11
# Text: So far, our study only focused on a few hand-picked NPF motifs and studied them as short synthetic peptides. However, many other proteins may be present in the proteome that could bind to POLE2 and their putative NPF motifs are embedded in their natural structures that can greatly affect their binding properties. To investigate interactions between POLE2 and intact, full length proteins proteome-wide, we used nHU-MS experiments with recombinant His6-avi-MBP-tagged POLE2 as bait and purified His6-avi-MBP as a control. Even though we are aware that this recombinant POLE2 may bind to NPF motifs with a somewhat altered affinity, we assumed that this would affect all NPF motif-mediated interactions equally, allowing an unbiased affinity ranking of all identified partners. Single point nHU measurements were performed at 26 μM POLE2 concentration and the recovered supernatant was measured by label free proteomic MS measurements (Fig. 3A, Supplementary Figs. 8A, 9, Supplementary Data 1).
# Single-point nHU experiments with protein baits were carried out nearly identically with two key modifications. First, the resin saturation step was carried out by mixing 50 μl streptavidin resin with 0.5−1 ml 50 μM biotinylated protein solution and the mixture was incubated for 1.5 h at 4 °C with constant agitation. Second, instead of using estimated bait concentrations, we measured it experimentally. An extra aliquot of resin stock was prepared alongside the nHU samples that were identically processed that were used to eluate the immobilized proteins under harsh conditions, in order to experimentally quantify the Cbait by using densitometry of Coomassie stained SDS-PAGE that included a protein calibration series. For this, 50 μl bait-saturated resin aliquots were mixed with 200 μl 4x Laemmli Sample Buffer (120 mM Tris-HCl pH 7, 8% SDS, 100 mM DTT, 32% glycerol, 0.004% bromphenol blue, 1% β-mercaptoethanol), instead of cell extract. After 15 min incubation at 95 °C, these samples were analyzed by SDS-PAGE using protein calibration standard, made from recombinant MBP. Densitometry was carried out after Coomassie staining on raw Tif images by using Fiji ImageJ 1.53c and experimental bait concentration were determined by adjusting for molecular weight differences between MBP and MBP-POLE2 constructs.
# Samples were digested overnight at 37 °C.
Molecule,"Kd (from the depletion of one peptide, single quantification, read-out: dissociation constant) [µM]","depletion (one DONSON peptide, single quantification)",pKapp_sign
B1,92,approximately 22%,–
B2,–,–,4.689
B3,–,–,4.604
B4,–,–,4.2
B5,–,–,4.421
B6,–,–,4.883
B7,–,–,5.695
B8,–,–,5.251
B9,–,–,4.815
B10,–,–,4.232
